Test results published in PMC5454391, “Improving 10-deacetylbaccatin III-10-β-O-acetyltransferase catalytic fitness for Taxol production” (Nature Communications, 2017).

B1: DBAT (recombinant DBAT of T. cuspidata) (Taxus cuspidata) (protein)
chain: MAGSTEFVVRSLERVMVAPSQPSPKAFLQLSTLDNLPGVRENIFNTLLVYNASDRVSVDPAKVIRQALSKVLVYYSPFAGRLRKKENGDLEVECTGEGALFVEAMADTDLSVLGDLDDYSPSLEQLLFCLPPDTDIEDIHPLVVQVTRFTCGGFVVGVSFCHGICDGLGAGQFLIAMGEMARGEIKPSSEPIWKRELLKPEDPLYRFQYYHFQLICPPSTFGKIVQGSLVITSETINCIKQCLREESKEFCSAFEVVSALAWIARTRALQIPHSENVKLIFAMDMRKLFNPPLSKGYYGNFVGTVCAMDNVKDLLSGSLLRVVRIIKKAKVSLNEHFTSTIVTPRSGSDESINYENIVGFGDRRRLGFDEVDFGWGHADNVSLVQHGLKDVSVVQSYFLFIRPPKNNPDGIKILSFMPPSIVKSFKFEMETMTNKYVTKP
B2: DBAT (recombinant DBAT of T. cuspidata) (Taxus cuspidata; F301V/G38R) (protein)
chain: MAGSTEFVVRSLERVMVAPSQPSPKAFLQLSTLDNLPRVRENIFNTLLVYNASDRVSVDPAKVIRQALSKVLVYYSPFAGRLRKKENGDLEVECTGEGALFVEAMADTDLSVLGDLDDYSPSLEQLLFCLPPDTDIEDIHPLVVQVTRFTCGGFVVGVSFCHGICDGLGAGQFLIAMGEMARGEIKPSSEPIWKRELLKPEDPLYRFQYYHFQLICPPSTFGKIVQGSLVITSETINCIKQCLREESKEFCSAFEVVSALAWIARTRALQIPHSENVKLIFAMDMRKLFNPPLSKGYYGNVVGTVCAMDNVKDLLSGSLLRVVRIIKKAKVSLNEHFTSTIVTPRSGSDESINYENIVGFGDRRRLGFDEVDFGWGHADNVSLVQHGLKDVSVVQSYFLFIRPPKNNPDGIKILSFMPPSIVKSFKFEMETMTNKYVTKP
B3: DBAT (recombinant DBAT of T. cuspidata) (Taxus cuspidata; F301V) (protein)
chain: MAGSTEFVVRSLERVMVAPSQPSPKAFLQLSTLDNLPGVRENIFNTLLVYNASDRVSVDPAKVIRQALSKVLVYYSPFAGRLRKKENGDLEVECTGEGALFVEAMADTDLSVLGDLDDYSPSLEQLLFCLPPDTDIEDIHPLVVQVTRFTCGGFVVGVSFCHGICDGLGAGQFLIAMGEMARGEIKPSSEPIWKRELLKPEDPLYRFQYYHFQLICPPSTFGKIVQGSLVITSETINCIKQCLREESKEFCSAFEVVSALAWIARTRALQIPHSENVKLIFAMDMRKLFNPPLSKGYYGNVVGTVCAMDNVKDLLSGSLLRVVRIIKKAKVSLNEHFTSTIVTPRSGSDESINYENIVGFGDRRRLGFDEVDFGWGHADNVSLVQHGLKDVSVVQSYFLFIRPPKNNPDGIKILSFMPPSIVKSFKFEMETMTNKYVTKP
B4: DBAT (recombinant DBAT of T. cuspidata) (Taxus cuspidata; G38R) (protein)
chain: MAGSTEFVVRSLERVMVAPSQPSPKAFLQLSTLDNLPRVRENIFNTLLVYNASDRVSVDPAKVIRQALSKVLVYYSPFAGRLRKKENGDLEVECTGEGALFVEAMADTDLSVLGDLDDYSPSLEQLLFCLPPDTDIEDIHPLVVQVTRFTCGGFVVGVSFCHGICDGLGAGQFLIAMGEMARGEIKPSSEPIWKRELLKPEDPLYRFQYYHFQLICPPSTFGKIVQGSLVITSETINCIKQCLREESKEFCSAFEVVSALAWIARTRALQIPHSENVKLIFAMDMRKLFNPPLSKGYYGNFVGTVCAMDNVKDLLSGSLLRVVRIIKKAKVSLNEHFTSTIVTPRSGSDESINYENIVGFGDRRRLGFDEVDFGWGHADNVSLVQHGLKDVSVVQSYFLFIRPPKNNPDGIKILSFMPPSIVKSFKFEMETMTNKYVTKP

Each protein was assayed on [H][C@]12[C@H](OC(=O)c3ccccc3)[C@]3(O)C[C@H](OC(=O)[C@H](O)[C@@H](NC(=O)c4ccccc4)c4ccccc4)C(C)=C([C@@H](O)C(=O)[C@]1(C)[C@@H](O)C[C@@]1([H])OC[C@@]21OC(C)=O)C3(C)C (assay: purified protein). Conditions: acetyl-CoA 2,000 μM (saturating), 50 mM sodium acetate pH 5.5, 37.5 °C, 180 min.

With B1 the Km was 0.546 (±0.029) mM.
In the case of B2, the Km is reported as 0.424 (±0.133) mM.
B3 was tested, and the Km was 0.178 (±0.017) mM.
In the case of B4, the Km is reported as 0.368 (±0.061) mM.

First: B1
Second: B2
The Vmax of the first is lower: 0.204 µM/min for the first, 0.918 µM/min for the second.

Going from B3 to B4, the Vmax rises from 0.242 µM/min to 0.499 µM/min.

Compared with B1, B2 is 4.5-fold higher in kcat: 0.000334 s⁻¹ for the first, 0.0015 s⁻¹ for the second.

Compared with B3, B4 is 2.1-fold higher in kcat: 0.000396 s⁻¹ for the first, 0.000815 s⁻¹ for the second.

Compared with B1, B2 is 5.8-fold higher in kcat/Km: 0.611 M⁻¹ s⁻¹ for the first, 3.54 M⁻¹ s⁻¹ for the second.

B3 and B4 are the same in kcat/Km: 2.22 M⁻¹ s⁻¹ for the first, 2.22 M⁻¹ s⁻¹ for the second.
